The text below walks through data of publication PMC5768738, “Structure of a MacAB-like efflux pump from Streptococcus pneumoniae” (Nature Communications, 2018).

The data set deals with the molecule itself. The data set can be described thus: crystal structure; Se-Met Spr0693_(59–324) T197M/I317M, hanging drop at 12 °C, sodium acetate pH 4.5; SAD, 3.0 Å; three molecules in the asymmetric unit.

B1: Spr0693_(59–324) T197M/I317M, selenomethionine-labelled (domain or fragment, Streptococcus pneumoniae R6, UniProt Q8DQF9 59-324, looked up)
chain: SVLLSGTVTAKNEQYVYFDASKGDLDEILVSVGDKVSEGQALVKYSSSEAQAAYDSASRAVARADRHINELNQARNEAASAPAPQLPAPVGGEDATVQSPTPVAGNSVASIDAQLGDARDARADAAAQLSKAQSQLDAMTVLSTLEGTVVEVNSNVSKSPTGASQVMVHIVSNENLQVKGELSEYNLANLSVGQEVSFTSKVYPDKKWTGKLSYISDYPKNNGEAASPAAGNNTGSKYPYTIDVTGEVGDLKQGFSVNMEVKSKTK
modifications: selenomethionine instead of methionine
notes: Spr0693, Streptococcus pneumoniae R6, residues Ser59–Lys324 (without the TM and the membrane-proximal domain); Plasmid built on the full-length spr0693 plasmid (C-terminal tag) and purified on Ni-NTA; The structure was solved from a Se-Met crystal of the T197M/I317M double mutant; residues Pro142–Gly163 are not traced; also called truncated Spr0693 (Ser59–Lys324); TM&MP-truncated Spr0693; source: …
As for B1, the “stoichiometry N” value is 6.

By stoichiometry N is commonly meant the number of molecules, sites or subunits per partner or assembly.
